Test results as given in the supplement of paper PMC10724198.
± gives the standard deviation of the averaged measurements.

How the values were obtained:
[1] = test system: Saccharomyces cerevisiae; test: protein stability index of tFT-peptide fusion (C-terminal peptide) (PSI (0-1 scale)); higher = more stable (slower turnover)
Protocol: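 MPS profiling in S. cerevisiae of the tFT-X12 degron library: putative degron peptides plus stable controls, 12 aa, fused to the C-terminus of a sfGFP-mCherry timer. Cells are FACS-sorted into 8 mCherry/sfGFP bins and deep-sequenced. PSI runs from 0 (unstable) to 1 (stable). Backgrounds are wild type, das1Δ and doa10Δ at 30 °C, and wild type, das1Δ, cdc34-1 and cdc53-1 at 37 °C; 2-3 technical replicates each.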

[2] = test system: Saccharomyces cerevisiae; test: as above; conditions: genetic background: wild type; temperature: 30 C
[3] = genetic background: cdc34-1, temperature: 37 C
[4] = genetic background: cdc53-1, temperature: 37 C
[5] = genetic background: das1 deletion, temperature: 30 C
[6] = genetic background: das1 deletion, temperature: 37 C
[7] = genetic background: doa10 deletion, temperature: 30 C
[8] = genetic background: wild type, temperature: 30 C
[9] = genetic background: wild type, temperature: 37 C
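Note: PSI is a weighted mean of sequencing reads over stability bins, variants kept only with over 10 reads, mCherry proximal and sfGFP distal, peptide attached via GGGS linker.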

Sequence	protein stability index [1, 3]	protein stability index [1, 4]	protein stability index [1, 5]	protein stability index [1, 6]	protein stability index [1, 7]	protein stability index [1, 8]	protein stability index [1, 9]	protein stability index [2]
RARRFGKWERSG	0.644 ± 0.032	0.761 ± 0.025	0.639 ± 0.013	0.731 ± 0.024	0.33 ± 0.03	0.377 ± 0.03	0.544 ± 0.0099	0.4453 ± 0.0039
FFFFPVYFIFVV	0.272 ± 0.014	0.288 ± 0.05	0.259 ± 0.02	0.409 ± 0.013	0.259 ± 0.01	0.232 ± 0.016	0.32 ± 0.0059	0.311 ± 0.0065
NECLSSKWLRIC	0.399 ± 0.013	0.661 ± 0.032	0.631 ± 0.029	0.726 ± 0.025	0.0791 ± 0.032	0.111 ± 0.039	0.147 ± 0.035	0.185 ± 0.0041
FIRLTFLRLSCI	0.546 ± 0.021	0.623 ± 0.03	0.51 ± 0.034	0.638 ± 0.031	0.183 ± 0.015	0.199 ± 0.0096	0.391 ± 0.0049	0.255 ± 0.022
TFLVWSLMAGDR	0.449 ± 0.033	0.5276 ± 0.00077	0.447 ± 0.023	0.4667 ± 0.0043	0.484 ± 0.011	0.474 ± 0.043	0.459 ± 0.032	0.464 ± 0.03
VSFGELGVEVVG	0.709 ± 0.022	0.735 ± 0.041	0.529 ± 0.017	0.736 ± 0.017	0.538 ± 0.014	0.559 ± 0.018	0.7148 ± 0.0022	0.451 ± 0.022
SFLVRFVYFFAL	0.54 ± 0.043	0.619 ± 0.025	0.549 ± 0.021	0.6696 ± 0.0039	0.229 ± 0.02	0.232 ± 0.027	0.309 ± 0.017	0.314 ± 0.019
SSVFRLKGLMFL	0.622 ± 0.062	0.721 ± 0.042	0.65 ± 0.047	0.7146 ± 0.0016	0.262 ± 0.0081	0.277 ± 0.016	0.448 ± 0.012	0.442 ± 0.038
PGRHSVRFVFVC	0.349 ± 0.023	0.519 ± 0.046	0.444 ± 0.019	0.581 ± 0.024	0.113 ± 0.0067	0.112 ± 0.028	0.143 ± 0.0068	0.208 ± 0.06
IHTFSVVVVVAA	0.0536 ± 0.037	0.0437 ± 0.026	0.128 ± 0.029	0.135 ± 0.0088	0.0749 ± 0.0091	0.114 ± 0.031	0.128 ± 0.03	0.163 ± 0.022
SQSNQSIIRKNV	0.7 ± 0.043	0.713 ± 0.0077	0.63 ± 0.013	0.737 ± 0.016	0.296 ± 0.034	0.36 ± 0.032	0.551 ± 0.069	0.453 ± 0.02
FVIVSSCIGYAL	0.603 ± 0.039	0.641 ± 0.036	0.451 ± 0.028	0.584 ± 0.0076	0.4365 ± 0.0039	0.46 ± 0.025	0.561 ± 0.032	0.499 ± 0.015
IRVFSFLLFGCF	0.465 ± 0.027	0.503 ± 0.007	0.373 ± 0.033	0.546 ± 0.03	0.358 ± 0.012	0.364 ± 0.027	0.488 ± 0.02	0.44 ± 0.056
YQKIARVSLAVS	0.466 ± 0.015	0.512 ± 0.02	0.347 ± 0.038	0.526 ± 0.014	0.27 ± 0.021	0.328 ± 0.025	0.4779 ± 0.0035	0.424 ± 0.015
FLSCSRRPLRCW	0.40972 ± 0.00036	0.445 ± 0.048	0.303 ± 0.035	0.4962 ± 0.00098	0.273 ± 0.0051	0.301 ± 0.032	0.469 ± 0.021	0.463 ± 0.027
VDGVSFFVVLLC	0.406 ± 0.087	0.503 ± 0.0085	0.343 ± 0.029	0.537 ± 0.0077	0.189 ± 0.0091	0.198 ± 0.026	0.427 ± 0.0064	0.311 ± 0.036
IRSLRPFLLPLF	0.645 ± 0.016	0.731 ± 0.018	0.643 ± 0.022	0.7184 ± 0.0066	0.283 ± 0.004	0.306 ± 0.03	0.543 ± 0.0084	0.4088 ± 0.004
PCLLRYLVHPFP	0.687 ± 0.026	0.765 ± 0.021	0.648 ± 0.014	0.7439 ± 0.0017	0.65 ± 0.013	0.667 ± 0.0086	0.7159 ± 0.0025	0.75445 ± 0.00044
LCGIFTFRLSLL	0.693 ± 0.06	0.7815 ± 0.0027	0.668 ± 0.028	0.706 ± 0.014	0.245 ± 0.026	0.273 ± 0.024	0.437 ± 0.005	0.388 ± 0.051
SVVYSVWIYLLH	0.352 ± 0.018	0.4407 ± 0.0016	0.292 ± 0.022	0.484 ± 0.026	0.175 ± 0.0072	0.213 ± 0.03	0.392 ± 0.011	0.309 ± 0.0075

Sequence	protein stability index [1, 3]	protein stability index [1, 4]	protein stability index [1, 5]	protein stability index [1, 6]	protein stability index [1, 7]	protein stability index [1, 8]	protein stability index [1, 9]	protein stability index [2]
FYSLYLSLVCFN	0.345 ± 0.015	0.389 ± 0.0083	0.301 ± 0.034	0.454 ± 0.0076	0.161 ± 0.01	0.127 ± 0.016	0.256 ± 0.014	0.224 ± 0.0011
NDSSWEVSLMVG	0.693 ± 0.019	0.763 ± 0.021	0.616 ± 0.024	0.748 ± 0.0098	0.614 ± 0.041	0.62 ± 0.018	0.736 ± 0.028	0.363 ± 0.076
VVQCRFPTPCVV	0.486 ± 0.035	0.485 ± 0.033	0.372 ± 0.03	0.5335 ± 0.0022	0.349 ± 0.0096	0.376 ± 0.027	0.496 ± 0.022	0.476 ± 0.013
VTFWISLVYVLV	0.192 ± 0.015	0.264 ± 0.022	0.18 ± 0.023	0.35 ± 0.0028	0.148 ± 0.0088	0.16 ± 0.017	0.279 ± 0.027	0.218 ± 0.011
KYQVIILQTRKI	0.578 ± 0.014	0.754 ± 0.0091	0.634 ± 0.063	0.765 ± 0.032	0.201 ± 0.064	0.252 ± 0.053	0.491 ± 0.02	0.398 ± 0.0041
CLFHQFITLLVN	0.0942 ± 0.009	0.177 ± 0.012	0.222 ± 0.026	0.2692 ± 0.0019	0.0508 ± 0.017	0.0593 ± 0.0052	0.0523 ± 0.01	0.0965 ± 0.019
REAFVVLAVFFH	0.199 ± 0.0062	0.321 ± 0.054	0.226 ± 0.019	0.406 ± 0.02	0.193 ± 0.0039	0.199 ± 0.03	0.315 ± 0.05	0.328 ± 0.04
AGESLRAIAVLY	0.647 ± 0.06	0.715 ± 0.025	0.588 ± 0.0077	0.6605 ± 0.004	0.258 ± 0.016	0.292 ± 0.018	0.47738 ± 0.00044	0.42 ± 0.018
FTNLDYTKEKNN	0.423 ± 0.15	0.6798 ± 0.0014	0.623 ± 0.052	0.708 ± 0.042	0.134 ± 0.012	0.146 ± 0.025	0.178 ± 0.0045	0.29 ± 0.017
KKKKKKKIKIMS	0.583 ± 0.0096	0.706 ± 0.019	0.636 ± 0.024	0.689 ± 0.018	0.176 ± 0.03	0.232 ± 0.051	0.293 ± 0.032	0.266 ± 0.048
WVRLWGVLEAQG	0.349 ± 0.013	0.445 ± 0.022	0.334 ± 0.028	0.369 ± 0.0011	0.344 ± 0.028	0.332 ± 0.012	0.3675 ± 0.0028	0.3627 ± 0.0029
GRWVLALCLVCG	0.165 ± 0.0068	0.199 ± 0.0044	0.202 ± 0.026	0.312 ± 0.0066	0.164 ± 0.0086	0.194 ± 0.026	0.273 ± 0.0044	0.289 ± 0.0051
LGVLVVAFCGGC	0.488 ± 0.041	0.554 ± 0.0076	0.354 ± 0.034	0.541 ± 0.0069	0.325 ± 0.017	0.347 ± 0.023	0.5327 ± 0.00083	0.409 ± 0.031
GGSWVRCLRTMG	0.628 ± 0.019	0.71 ± 0.024	0.614 ± 0.016	0.7097 ± 0.0014	0.17 ± 0.0073	0.158 ± 0.028	0.399 ± 0.032	0.312 ± 0.029
YYKGGYLYLRLS	0.398 ± 0.031	0.4395 ± 0.0037	0.454 ± 0.029	0.607 ± 0.035	0.171 ± 0.0093	0.15 ± 0.018	0.316 ± 0.036	0.253 ± 0.015
SLSIFCLMLMLF	0.564 ± 0.04	0.601 ± 0.029	0.467 ± 0.016	0.565 ± 0.025	0.425 ± 0.015	0.406 ± 0.021	0.512 ± 0.012	0.4537 ± 0.0037
NFKELMEKSKYR	0.704 ± 0.02	0.752 ± 0.029	0.677 ± 0.019	0.763 ± 0.028	0.677 ± 0.061	0.665 ± 0.027	0.718 ± 0.012	0.719 ± 0.018
GFGRRGQFGGTG	0.86 ± 0.079	0.863 ± 0.016	0.607 ± 0.019	0.801 ± 0.048	0.542 ± 0.039	0.567 ± 0.04	0.835 ± 0.059	0.574 ± 0.14
RLGSLVPLAKQL	0.643 ± 0.11	0.745 ± 0.03	0.6729 ± 0.0062	0.737 ± 0.023	0.319 ± 0.0077	0.289 ± 0.023	0.413 ± 0.04	0.444 ± 0.059
